Test results as given in patent US7183110B2, “Antibody immunoreactive with a 5-enolpyruvylshikimate-3-phosphate synthase” (Monsanto Technology LLC, priority 1990, dated 2007).

Key:
[1] = test system: rabbit anti-EPSPS antibody; assay: Western analysis with rabbit anti-EPSPS antibody to the Petunia EPSPS protein; type: binding; conditions: crude extracts 50 μg protein; control Petunia EPSPS 20 ng; Protein A-125I development
From the text: The presence of EPSPS activity in these extracts was confirmed by enzyme assay. This surprising result, indicating a lack of similarity between the EPSPS's from these bacterial isolates and those previously studied, coupled with the combination of a low Km for PEP and a high Ki for glyphosate, illustrates that these new EPSPS enzymes are different from known EPSPS enzymes (now referred to as Class I EPSPS).

[2] = test system: EPSPS enzymes; assay: Kinetic characterization of EPSPS enzymes (Km PEP, Ki glyphosate); type: biochemical; conditions: for Ki/Km: Ki glyphosate / Km PEP; for Km: Km of the EPSPS enzyme for phosphoenolpyruvate, PEP ranges tested in table footnotes
Protocol: The EPSPS enzymes from these microorganisms were then subjected to further study and analysis.
When the change introduced into the Petunia EPSPS (GA101) was introduced into a number of other EPSPS enzymes, similar changes in kinetics were observed, an elevation of the Ki for glyphosate and of the Km for PEP.
All protein purification procedures were carried out at 3–5° C. EPSPS enzyme assays were performed using either the phosphate release or radioactive HPLC method, as previously described in Padgette et al., 1987, using 1 mM phosphoenol pyruvate (PEP, Boehringer) and 2 mM shikimate-3-phosphate (S3P) substrate concentrations. For radioactive HPLC assays, ^14C-PEP (Amersham) was utilized. S3P was synthesized as previously described in Wibbenmeyer et al. 1988. N-terminal amino acid sequencing was performed by loading samples onto a Polybrene precycled filter in aliquots while drying. Automated Edman degradation chemistry was used to determine the N-terminal protein sequence, using an Applied Biosystems Model 470A gas phase sequencer (Hunkapiller et al., 1983) with an Applied Biosystems 120A PTH analyzer.

[3] = biological target: T1, CP4 EPSPS (Agrobacterium sp., UniProt Q9R4E4, S2A); assay: EPSPS activity from native and synthetic CP4 EPSPS genes expressed in E. coli; type: biochemical, Agrobacterium sp. strain CP4
T1 construct: made in house; host or cells: E. coli, PRecA-gene10L vector
From the text: A synthetic CP4 gene was designed to change as completely as possible those inimical sequences discussed above. In summary, the gene sequence was redesigned to eliminate as much as possible the following sequences or sequence features (while avoiding the introduction of unnecessary restriction sites): stretches of G's and C's of 5 or greater; and A+T rich regions (predominantly) that could function as polyadenylation sites or potential RNA destabilization region The sequence of this gene is shown in FIG. 8 (SEQ ID NO:9). This coding sequence was expressed in E. coli from the RecA promoter and assayed for EPSPS activity and compared with that from the native CP4 EPSPS gene. […] The N-terminus of the coding sequence was mutagenized to place an SphI site at the ATG to permit the construction of the CTP2-CP4 synthetic fusion for chloroplast import. The following primer was used to accomplish this mutagenesis:
The EPSPS gene was isolated originally from Agrobacterium sp. strain CP4 and expresses a highly tolerant enzyme. The original gene contains sequences that could be inimical to high expression of the gene in some plants. […] The high G+C % in the CP4 EPSPS gene could also result in the formation of strong hairpin structures that may affect expression or stability of the RNA. A plant preferred version of the gene was synthesized and used for these vectors. This coding sequence was expressed in E. coli from a PRecA-gene10L vector (Olins et al., 1988) and the EPSPS activity was compared with that from the native CP4 EPSPS gene. […] The N-terminus of the coding sequence was then mutagenized to place an SphI site (GCATGC) at the ATG to permit the construction of the CTP2-CP4 synthetic fusion for chloroplast import. This change had no apparent effect on the in vivo activity of CP4 EPSPS in E. coli as judged by complementation of the aroA mutant. A CTP-CP4 EPSPS fusion was constructed between the Arabidopsis thaliana EPSPS CTP (Klee et al., 1987) and the CP4 EPSPS coding sequences. The Arabidopsis CTP was engineered by site-directed mutagenesis to place a SphI restriction site at the CTP processing site. This mutagenesis replaced the Glu-Lys at this location with Cys-Met. The CTP2-CP4 EPSPS fusion was tested for import into chloroplasts isolated from Lactuca sativa using the methods described previously (della-Cioppa et al., 1986: 1987).

[4] = test system: LBAA EPSPS; assay: appKm and appKi of LBAA EPSPS wild type and G100A variant in E. coli crude lysates; type: biochemical, Achromobacter sp. strain LBAA; conditions: range of PEP: 2–40 μM
From the text: One difference that may be noted between the deduced amino acid sequences of the CP4 and LBAA EPSPS proteins is at position 100 where an Alanine is found in the case of the CP4 enzyme and a Glycine is found in the case of the LBAA enzyme. In the Class I EPSPS enzymes a Glycine is usually found in the equivalent position, i.e Glycine96 in E. coli and K. pneumoniae and Glycine101 in Petunia. In the case of these three enzymes it has been reported that converting that Glycine to an Alanine results in an elevation of the appKi for glyphosate and a concomitant elevation in the appKm for PEP (Kishore et al., 1986; Kishore and Shah, 1988; Sost and Amrhein, 1990), which, as discussed above, makes the enzyme less efficient especially under conditions of lower PEP concentrations. The Glycine100 of the LBAA EPSPS was converted to an Alanine and both the appKm for PEP and the appKi for glyphosate were determined for the variant. The Glycine100Alanine change was introduced by mutagenesis using the following primer:
and both the wild type and variant genes were expressed in E. coli in a RecA promoter expression vector (pMON17201 and pMON17264, respectively) and the appKm's and appKi's determined in crude lysates. […] However, in contrast to the results in the Class I G-A variants, the appKm(PEP) in the Class II (LBAA) G-A variant is unaltered. […]

T1 sequence (Q9R4E4 whole entry S2A): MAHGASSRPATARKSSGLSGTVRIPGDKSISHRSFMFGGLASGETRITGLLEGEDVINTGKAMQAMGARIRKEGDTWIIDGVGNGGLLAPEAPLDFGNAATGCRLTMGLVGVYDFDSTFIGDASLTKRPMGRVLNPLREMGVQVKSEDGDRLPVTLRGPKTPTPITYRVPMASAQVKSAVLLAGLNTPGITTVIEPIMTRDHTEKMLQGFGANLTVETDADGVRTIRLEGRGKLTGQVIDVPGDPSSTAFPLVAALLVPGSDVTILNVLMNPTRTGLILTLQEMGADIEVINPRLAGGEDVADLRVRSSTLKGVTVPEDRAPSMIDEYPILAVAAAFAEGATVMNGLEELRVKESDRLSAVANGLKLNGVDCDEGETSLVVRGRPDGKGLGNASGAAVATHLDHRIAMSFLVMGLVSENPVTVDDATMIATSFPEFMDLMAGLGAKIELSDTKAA

B1: CP4: Class II EPSPS enzyme from Agrobacterium sp. strain CP4 (SEQ ID NO:3) (protein, listed as Agrobacterium sp.)
chain: MSHGASSRPATARKSSGLSGTVRIPGDKSISHRSFMFGGLASGETRITGLLEGEDVINTGKAMQAMGARIRKEGDTWIIDGVGNGGLLAPEAPLDFGNAATGCRLTMGLVGVYDFDSTFIGDASLTKRPMGRVLNPLREMGVQVKSEDGDRLPVTLRGPKTPTPITYRVPMASAQVKSAVLLAGLNTPGITTVIEPIMTRDHTEKMLQGFGANLTVETDADGVRTIRLEGRGKLTGQVIDVPGDPSSTAFPLVAALLVPGSDVTILNVLMNPTRTGLILTLQEMGADIEVINPRLAGGEDVADLRVRSSTLKGVTVPEDRAPSMIDEYPILAVAAAFAEGATVMNGLEELRVKESDRLSAVANGLKLNGVDCDEGETSLVVRGRPDGKGLGNASGAAVATHLDHRIAMSFLVMGLVSENPVTVDDATMIATSFPEFMDLMAGLGAKIELSDTKAA
signal in Western analysis with rabbit anti-EPSPS antibody [1]: no positive signal could be detected
Ki/Km [2]: 227
Km [2]: 12 µM
appKm for PEP ([3]; expressed in E. coli from a PRecA-gene10L vector): 11.8 µM
Km ([3]; expressed in E. coli from the RecA promoter, read-out: apparent Km for PEP): 11.8 µM

B2: LBAA: Class II EPSPS enzyme from Achromobacter sp. strain LBAA (SEQ ID NO:5); wild type gene expressed from pMON17201 (protein, listed as Agrobacterium sp.)
chain: MSHSASPKPATARRSEALTGEIRIPGDKSISHRSFMFGGLASGETRITGLLEGEDVINTGRAMQAMGAKIRKEGDVWIINGVGNGCLLQPEAALDFGNAGTGARLTMGLVGTYDMKTSFIGDASLSKRPMGRVLNPLREMGVQVEAADGDRMPLTLIGPKTANPITYRVPMASAQVKSAVLLAGLNTPGVTTVIEPVMTRDHTEKMLQGFGADLTVETDKDGVRHIRITGQGKLVGQTIDVPGDPSSTAFPLVAALLVEGSDVTIRNVLMNPTRTGLILTLQEMGADIEVLNARLAGGEDVADLRVRASKLKGVVVPPERAPSMIDEYPVLAIAASFAEGETVMDGLDELRVKESDRLAAVARGLEANGVDCTEGEMSLTVRGRPDGKGLGGGTVATHLDHRIAMSFLVMGLAAEKPVTVDDSNMIATSFPEFMDMMPGLGAKIELSIL
signal in Western analysis with rabbit anti-EPSPS antibody [1]: no positive signal could be detected
Ki/Km [2]: ~7.9
Km [2]: 7.3 to 8 µM
appKm(PEP) [4]: 5.3 µM
